We go through four molecules from patent publication US20150329637A1 (NUMAB, published 2015).

For orientation: Kd means a measure of binding affinity in units of concentration. What is called koff is a measure of how fast the partners let go of each other. What is called kon is a measure of how fast the partners come together.

Test [1] concerns the target mouse CD3 (mouse CD36E [sic], Sino Biologicals Inc., Cat. No. CT033-M2508H) (mouse) (UniProt P22646). Put plainly: SPR. A general note: Surface plasmon resonance follows binding to a sensor surface in real time, without labels.
For test [2] the target is unchanged. Description: SPR. This is another data set of the same source.
Test [3] deals with T1, mouse IL23R (as used in the SPR of PRO387 and PRO386) (mouse, UniProt Q8K4B4 24-372, limits assumed).
T1 sequence (looked up): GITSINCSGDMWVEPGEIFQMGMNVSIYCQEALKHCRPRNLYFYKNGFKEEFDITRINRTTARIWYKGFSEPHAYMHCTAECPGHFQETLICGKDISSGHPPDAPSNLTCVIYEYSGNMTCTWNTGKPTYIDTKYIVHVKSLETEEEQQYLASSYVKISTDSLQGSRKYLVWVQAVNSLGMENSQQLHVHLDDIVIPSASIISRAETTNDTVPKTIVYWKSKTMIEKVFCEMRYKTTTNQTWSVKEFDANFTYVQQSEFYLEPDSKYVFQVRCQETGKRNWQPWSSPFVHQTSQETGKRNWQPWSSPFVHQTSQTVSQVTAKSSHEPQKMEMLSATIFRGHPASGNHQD
Description: SPR.

The target in test [4] is T1, mouse IL23R (as used in the SPR of …). Description: SPR. This is another data set of the same source.
Test [5] deals with T2, mouse IL23R Fc chimera (R&D Systems, Cat. No. 1686-MR-050) (mouse, UniProt Q8K4B4 24-372).
T2 construct: Bought reagent; Fc part of the bought chimera not given
T2 sequence (looked up): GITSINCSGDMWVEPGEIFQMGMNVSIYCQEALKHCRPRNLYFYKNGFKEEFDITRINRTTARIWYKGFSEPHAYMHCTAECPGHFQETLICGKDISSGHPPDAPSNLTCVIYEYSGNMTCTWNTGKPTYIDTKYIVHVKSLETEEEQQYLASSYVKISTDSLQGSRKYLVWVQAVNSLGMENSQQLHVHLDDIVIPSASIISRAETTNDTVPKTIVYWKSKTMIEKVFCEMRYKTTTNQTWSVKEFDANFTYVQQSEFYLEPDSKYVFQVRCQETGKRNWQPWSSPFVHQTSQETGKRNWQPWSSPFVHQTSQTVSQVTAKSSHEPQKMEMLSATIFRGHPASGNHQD
Put plainly: SPR; IL23R Fc chimera captured by anti-human Fc, scFv injected. Here is the method:
(§1) Binding affinities of anti-IL23R scFvs were measured by surface plasmon resonance (SPR) using a MASS-1 SPR instrument (Sierra Sensors). […] After immobilization, 1 ug/ml recombinant human IL23R Fc chimera (R&D Systems, Cat. No. 1400-IR-050) was captured by the anti-human IgG antibody while a second immobilized channel served as a control where the capture was replaced by buffer. Two-fold serial dilutions of human scFvs ranging from 180 to 2.81 nM were injected into both flow cells for 3 min and dissociation of the scFvs from the chimera on the sensor chip was allowed to proceed for 700 sec. After each injection cycle, surfaces were regenerated with two 1 min injections of 10 mM glycine-HCI pH 1.5. In a similar manner the affinities for cynomolgus and mouse IL23R Fc chimera (R&D Systems, Cat. No. 1686-MR-050) was measured. The apparent dissociation (kd) and association (ka) rate constants and the apparent dissociation equilibrium constant (KD) were calculated with the MASS-1 analysis software (Analyzer, Sierra Sensors) using one-to-one Langmuir binding model.

Test [6] concerns the target T3, cynomolgus IL23R Fc chimera (cynomolgus monkey, UniProt G7NWY5 24-353).
T3 construct: Named only in the method sentence 'cynomolgus and mouse IL23R Fc chimera'; also called cyno IL23R; not shown: Fc part of the chimera
T3 sequence: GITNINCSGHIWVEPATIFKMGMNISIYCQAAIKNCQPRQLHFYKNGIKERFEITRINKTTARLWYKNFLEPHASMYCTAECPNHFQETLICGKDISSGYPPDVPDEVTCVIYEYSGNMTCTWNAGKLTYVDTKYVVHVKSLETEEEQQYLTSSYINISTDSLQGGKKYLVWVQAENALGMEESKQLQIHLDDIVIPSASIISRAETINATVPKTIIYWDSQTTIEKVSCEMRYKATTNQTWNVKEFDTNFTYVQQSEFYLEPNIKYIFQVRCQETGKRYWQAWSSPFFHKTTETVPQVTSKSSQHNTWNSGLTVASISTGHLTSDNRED
The description is as above. On the procedure:
as §1

For test [7], the target named is T4, recombinant human IL23R Fc chimera (R&D Systems, Cat. No. 1400-IR-050) (human, UniProt Q5VWK5 24-353).
T4 construct: Bought reagent; not shown: Fc part (and any linker) of the bought chimera; captured by an anti-human IgG Fc antibody
T4 sequence (looked up): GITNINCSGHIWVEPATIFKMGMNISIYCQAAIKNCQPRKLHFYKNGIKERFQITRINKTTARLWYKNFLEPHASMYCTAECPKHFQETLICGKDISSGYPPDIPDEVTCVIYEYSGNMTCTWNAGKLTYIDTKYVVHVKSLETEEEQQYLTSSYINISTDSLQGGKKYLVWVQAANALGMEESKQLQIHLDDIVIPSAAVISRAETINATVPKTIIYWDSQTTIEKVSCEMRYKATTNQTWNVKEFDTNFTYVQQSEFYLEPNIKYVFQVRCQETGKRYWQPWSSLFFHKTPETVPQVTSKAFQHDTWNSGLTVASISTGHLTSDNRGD
Described as above. On the procedure:
as §1

Where two headings read alike, the source gives them in different places.

Chain of mouse CD3 (mouse CD36E [sic], Sino Biologicals Inc., Cat. No. CT033-M2508H) (mouse) (P22646 22-108, chain 1 of 2): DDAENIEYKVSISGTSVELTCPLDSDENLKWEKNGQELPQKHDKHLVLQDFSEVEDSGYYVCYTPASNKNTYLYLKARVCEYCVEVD
Chain of mouse CD3 (mouse CD36E [sic], Sino Biologicals Inc., Cat. No. CT033-M2508H) (mouse) (P04235 22-105, chain 2 of 2, further chain): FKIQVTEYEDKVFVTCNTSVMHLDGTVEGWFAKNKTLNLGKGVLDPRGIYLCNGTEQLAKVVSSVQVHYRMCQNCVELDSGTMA

B1: PRO400 (Fab, V domains shown)
VH: EVQLVESGGGLVQPGKSLKLSCEASGFTFSGYGMHWVRQAPGRGLESVAYITSSSINIKYADAVKGRFTVSRDNAKNLLFLQMNILKSEDTAMYYCARFDWDKNYWGQGTMVTVSS
VL: DIQMTQSPSSLPASLGDRVTINCQASQDISNYLNWYQQKPGKAPKLLIYYTNKLADGVPSRFSGSGSGRDSSFTISSLESEDIGSYYCQQYYNYPWTFGPGTKLEIKR
Regarding B1, in test [1], the Kd was 11.4 nM, the koff came out at 0.00266 s⁻¹ and the kon amounted to 233000 M⁻¹ s⁻¹.

B2: PRO386 (bispecific antibody)
light: DIQMTQSPSSLPASLGDRVTINCQASQDISNYLNWYQQKPGKAPKLLIYYTNKLADGVPSRFSGSGSGRDSSFTISSLESEDIGSYYCQQYYNYPWTFGPGTKLEIKRRTVAAPSVFIFPPSDEQLKSGTASVVCLLNNFYPREAKVQWKVDNALQSGNSQESVTEQDSKDSTYSLSSTLTLSKADYEKHKVYACEVTHQGLSSPVTKSFNRGECGGGGSGGGGSHMDIQMTQSPSSLSASVGDRVTITCQASENIYSFLAWYQQKPGKAPKLLIYSASKLAAGVPSRFSGSGSGTDFTLTISSLQPEDFATYYCQQTNRYSNPDIYNVFGQGTKLTVLGGGGGSGGGGSGGGGSGGGGSEVQLVESGGGLVQPGGSLRLSCAASGIDFNSNYYMCWVRQAPGKGLEWIGCIYVGSHVNTYYANWAKGRFTISRDNSKNTVYLQMNSLRAEDTAVYYCATSGSSVLYFKFWGQGTLVTVSS
heavy: EVQLVESGGGLVQPGKSLKLSCEASGFTFSGYGMHWVRQAPGRGLESVAYITSSSINIKYADAVKGRFTVSRDNAKNLLFLQMNILKSEDTAMYYCARFDWDKNYWGQGTMVTVSSASTKGPSVFPLAPSSKSTSGGTAALGCLVKDYFPEPVTVSWNSGALTSGVHTFPAVLQSSGLYSLSSVVTVPSSSLGTQTYICNVNHKPSNTKVDKKVEPKSCGGGGSGGGGSHMDIQMTQSPSSLSASVGDRVTITCQASENIYSFLAWYQQKPGKAPKLLIYSASKLAAGVPSRFSGSGSGTDFTLTISSLQPEDFATYYCQQTNRYSNPDIYNVFGQGTKLTVLGGGGGSGGGGSGGGGSGGGGSEVQLVESGGGLVQPGGSLRLSCAASGIDFNSNYYMCWVRQAPGKGLEWIGCIYVGSHVNTYYANWAKGRFTISRDNSKNTVYLQMNSLRAEDTAVYYCATSGSSVLYFKFWGQGTLVTVSS
notes: Heterodimer; bispecific and trivalent (one anti-CD3 Fab, two anti-IL23R scFvs); also called PRO386 (Tribody); Fab-scFv fusion surrogate
In the case of B2, in test [2], the Kd came out at 11.5 nM, the dissociation rate constant (koff) turned out to be 0.00196 s⁻¹ and the kon worked out at 171000 M⁻¹ s⁻¹. In test [3], this molecule had a Kd of 0.583 nM, a koff of 0.000533 s⁻¹ and a kon of 915000 M⁻¹ s⁻¹.

B3: PRO387 (bispecific antibody)
chain: DIQMTQSPSSLSASVGDRVTITCQASENIYSFLAWYQQKPGKAPKLLIYSASKLAAGVPSRFSGSGSGTDFTLTISSLQPEDFATYYCQQTNRYSNPDIYNVFGQGTKLTVLGGGGGSEVQLVESGGGLVQPGKSLKLSCEASGFTFSGYGMHWVRQAPGRGLESVAYITSSSINIKYADAVKGRFTVSRDNAKNLLFLQMNILKSEDTAMYYCARFDWDKNYWGQGTMVTVSSGGGGSGGGGSGGGGSGGGGSDIQMTQSPSSLPASLGDRVTINCQASQDISNYLNWYQQKPGKAPKLLIYYTNKLADGVPSRFSGSGSGRDSSFTISSLESEDIGSYYCQQYYNYPWTFGPGTKLEIKRGGGGSEVQLVESGGGLVQPGGSLRLSCAASGIDFNSNYYMCWVRQAPGKGLEWIGCIYVGSHVNTYYANWAKGRFTISRDNSKNTVYLQMNSLRAEDTAVYYCATSGSSVLYFKFWGQGTLVTVSS
notes: also called PRO387 (scDb); surrogate scDb
In test [4], B3 returned a Kd of 4.66 nM, a koff of 0.00326 s⁻¹ and a kon of 701000 M⁻¹ s⁻¹. Also, in test [1], the Kd turned out to be 9.11 nM, the koff came to 0.00213 s⁻¹ and the kon was 233000 M⁻¹ s⁻¹.

B4: 14-11-D07-sc01 (scFv)
scFv: DIQMTQSPSSLSASVGDRVTITCQASENIYSFLAWYQQKPGKAPKLLIYSASKLAAGVPSRFSGSGSGTDFTLTISSLQPEDFATYYCQQTNRYSNPDIYNVFGQGTKLTVLGGGGGSGGGGSGGGGSGGGGSEVQLVESGGGLVQPGGSLRLSCAASGIDFNSNYYMCWVRQAPGKGLEWIGCIYVGSHVNTYYANWAKGRFTISRDNSKNTVYLQMNSLRAEDTAVYYCATSGSSVLYFKFWGQGTLVTVSS
notes: Humanized scFv (CDR graft on a VK1/VH3 framework); also called anti-IL23R scFv 14-11-D07-sc01
In test [5], B4 came in with a Kd of 2.21 nM, a koff of 0.00418 s⁻¹ and a kon of 1.89e+06 M⁻¹ s⁻¹. In test [6], this molecule came in with a Kd of 0.124 nM, a koff of 0.000361 s⁻¹ and a kon of 2.92e+06 M⁻¹ s⁻¹. In test [7], the Kd was determined as 0.116 nM, the koff stood at 0.000259 s⁻¹ and the kon stood at 2.24e+06 M⁻¹ s⁻¹.
